The source of these data is patent US11142588B2, “Polypeptides which bind C-X-C chemokine receptor type 4 (CXCR4) and methods of treating or reducing the risk of fibrosis and cancer” (AdAlta Limited, priority 2015, dated 2021).

The conditions of series [1]: cited from earlier work; for bleomycin induced pulmonary fibrosis: Xu et al 2007.
The subject of a further series is Ramos tumor cells. The series can be described thus: Apoptosis assay (annexin V / propidium iodide flow cytometry). In kind it is cell-based, human. The note with it: annexin V and propidium iodide double positive, 24 or 72 hours. As for the experimental part: The ability of an i-body of the invention to induce apoptosis in Ramos tumor cells (a human Burkitt's lymphoma cell line) was examined in an apoptosis assay according to the methods as described in Mishra M et al (2011) J Cell Mol Med 15(11):2462-77. I-bodies were incubated with Ramos cells and examined by flow cytometry after 24 or 72 hours. The cells were stained for annexin V and propidium iodide which are classic markers for apoptosis. Cells which were double positive were assessed to have become apoptotic.
On the technique in general: In flow cytometry, cells or beads pass a laser one at a time.

The next series concerns CCL2 and CCL5 protein. The series can be described thus: CCL2, CCL5, CXCL12 ELISA of fibroblast conditioned supernatants. In kind it is cell-based, human. The note with it: 48 hours. The text has this:
Various reports indicate that CXCR4 signals in conjunction with other chemokine receptors, including CCR2.
On the technique in general: In an ELISA, binding on a coated surface is turned into a signal by an enzyme label.

For series [2] the following is noted: mouse, in vivo, iv, 2 mg/kg.
Description: A series of blood samples from all mice (0.3 mL, 2 time point/mouse 3/group/time point) were collected following dosing as follows:
For this purpose, each mouse (CD-1 mouse) was bled via the saphenous vein or under isoflurane anaesthesia by cardiac puncture and the samples collected into tubes containing the anticoagulant, K2-EDTA. Tubes were placed on wet ice pending processing. Following its last blood sampling, each animal was euthanized by cervical dislocation and discarded without further examination.
Following collection, the samples were centrifuged (approximately 4° C.) and the resulting plasma was recovered in two separate aliquots and stored frozen (60° C.) in labeled Protein LoBind 1.5 mL tubes (Eppendorf, cat no. 022431081).
The next series concerns the target CXCR4 (Homo sapiens, UniProt P61073). The series can be described thus: β-arrestin BRET assay, antagonist mode with 100 nM SDF-1. The class given is cell-based. Further details: expressed in transfected cells; host or cells: HEK293FT. The settings on record: for β-arrestin activity: various concentrations. The text has this:
(FIGS. 3A-3F and 14) BRET was used in this study to assess the real-time kinetic profiles resulting from any consequent increase in proximity, building upon the previously validated monitoring of GPCR/β-arrestin interactions utilizing BRET. BRET occurs between a complementary Renilla luciferase (Rluc) variant as donor and green fluorescent protein variant as acceptor. Upon Rluc-catalyzed oxidation of the coelenterazine substrate (such as coelenterazine h for first generation BRET (BRET) or EnduRen for extended BRET (eBRET), energy is transferred to the acceptor if within 10 nm, resulting in acceptor light emission peaking at a characteristic wavelength. BRET (3-arrestin assays were carried out as described previously (See, H. B., Seeber, R. M., Kocan, M., Eidne, K. A. and Pfleger, K. D. (2011) ‘Application of G protein-coupled receptor-heteromer identification technology to monitor beta-arrestin recruitment to G protein-coupled receptor heteromers’, Assay Drug Dev Technol, 9(1), 21-30, 10.1089/adt.2010.0336). CXCR4/Rluc8 cDNA constructs were generated from plasmids containing the respective receptor cDNA tagged with Rluc kindly provided by Aron Chakera (Oxford University, United Kingdom). The β-arrestin 2/Venus cDNA construct was prepared previously from pCS2-Venus kindly provided by Atsushi Miyawaki (RIKEN Brain Science Institute, Wako-city, Japan). BRET technology in cells transiently expressing CXCR4/Rluc8 and β-arrestin2/Venus in the presence of 100 nM SDF-1 agonist was evaluated in the presence of the CXCR4 agonist SDF-1/CXCL12 and the i-bodies. HEK293FT cells were maintained at 37° C., 5% CO2 in Complete Media (Dulbecco's modified Eagle's medium containing 0.3 mg/mL glutamine, 100 IU/mL penicillin, and […] streptomycin; Gibco) supplemented with 10% fetal calf serum (FCS) and […] Geneticin (Gibco). Transfections were carried out 24 h after seeding using Genejuice (Novagen) according to manufacturer's instructions. Cells were harvested with 0.05% Trypsin-EDTA (Gibco). HEK293FT cells were transfected using FuGene6 (Promega). 5 μM coelenterazine h (Promega) in HBSS was used as the luciferase substrate solution. Cells were harvested 24 h post-transfection in HEPES-buffered phenol red-free Complete Medium containing 5% FCS and added to a poly-L-lysine-coated white 96-well plate (Nunc). Dose-response curves were generated using BRET, with medium in the plate being replaced with PBS containing […] coelenterazine h (Molecular Probes) and assays carried out immediately. For these assays, 48 h post-transfection, the plate was incubated at […], 5% CO2 for 2 h with […] EnduRen (Promega) to ensure substrate equilibrium was reached. All BRET measurements were taken at 37° C. using the VICTOR Light plate reader with Wallac 1420 software (PerkinElmer). Filtered light emissions were sequentially measured at 400-475 and 520-540 nm. The BRET signal was calculated by subtracting the ratio of 520-540 nm emission over 400-475 nm emission for a vehicle-treated cell sample from the same ratio for a second aliquot of the same cells treated with agonist (in this instance in the presence of SDF-1 or CXCL12) and i-body (ADCX-99, ADCX-272, ACDX-6, ACDX-306, ADCX-668) at various concentrations. Data are mean±S.E.M. of four independent experiments carried out in duplicate.
Binding of the i-bodies to CXCR4 were examined in a β-Arrestin BRET assay as described in See, Heng B et al (2011) Assay and Drug Development Technologies 9(1):21-30. The i-bodes were examined at ten concentrations with and without 100 nM SDF-1 with the addition of ‘vehicle’ and ‘SDF-1+vehicle’ controls in order to characterise if the i-bodies are agonist or antagonists of CXCR4 activity.
(In BRET a luciferase serves as donor, and the signal depends on an acceptor being close.)

For series [3], the target named is T1, human CXCR4 (CXCR4 positive lipoparticles) (Homo sapiens, UniProt P61073).
T1 construct: purchased Integral Molecular LEV-101B
T1 sequence (P61073 whole entry): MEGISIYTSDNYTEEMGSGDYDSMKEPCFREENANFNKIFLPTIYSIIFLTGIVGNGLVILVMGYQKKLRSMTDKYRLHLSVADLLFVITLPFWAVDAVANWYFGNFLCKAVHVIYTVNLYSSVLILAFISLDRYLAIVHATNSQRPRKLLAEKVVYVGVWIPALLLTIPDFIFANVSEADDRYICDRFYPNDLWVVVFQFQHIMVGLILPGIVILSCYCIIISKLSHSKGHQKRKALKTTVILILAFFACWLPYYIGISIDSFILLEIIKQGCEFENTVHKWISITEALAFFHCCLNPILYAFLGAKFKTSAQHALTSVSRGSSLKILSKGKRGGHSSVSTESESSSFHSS
The series can be described thus: Biacore SPR kinetic binding to immobilised CXCR4 lipoparticles. How it is done:
(FIGS. 2A-2C, 5A-5C, 11A-11D, 17A-17B) Kinetic binding analysis of selected i-bodies with immobilized CXCR4 lipoparticles were performed at 25° C. using Biacore T200 instrument (GE Healthcare, Uppsala, Sweden). Streptavidin immobilization was performed in 1×HBS-P+ running buffer (10 mM HEPES, 150 mM NaCl, 0.05% [v/v] Tween-20). […] All binding experiments involving lipoparticles were performed with 1×HBS/BSA (10 mM HEPES, 150 mM NaCl, 1 mg/mL BSA) as instrument running buffer. […] In order to determine binding kinetics, serial dilutions (three-fold) of i-bodies diluted in 1×HBS/BSA were injected over immobilized lipoparticles with the association and dissociation phases monitored for 60 sec and 600 sec, respectively. A control measurement of the instrument running buffer (“zero-buffer” blank) solution was also included for double referencing purposes. Collected experimental data were processed using Scrubber software (www.biologic.com.au). Kinetic parameters (ka=association and kd=dissociation rate constants) and equilibrium dissociation constant (KD=kd/ka) were derived by fitting each set of experimental data to a Langmuir 1:1 binding model. All interaction measurements were performed in triplicate and the derived binding parameters reported as averaged values±standard deviation.

The mark [4] stands for this setting: CXCR4 expressed on lipoparticles (Table 4).

“And” between values parts separate entries of the source, which are not always exact repeats. Identical values can stand only once.

Sequence of CXCR4 (P61073 whole entry): as above

`c1cnc(NCc2ccc(CNc3ncccn3)cc2)nc1` [MSX-122]: the “development of pulmonary fibrosis in irradiated mice” value in series [1] (Shu et al 2013) is reported as “significant reductions in development of pulmonary fibrosis”. Further, the “bleomycin induced pulmonary fibrosis” value in series [1] is “completely preventing bleomycin-induced lung fibrosis”.

In the case of `C/C=C(/C)C(=O)O[C@H]1C(C)=C2[C@H]([C@@H]1OC(=O)CCCCCCC)[C@@](C)(OC(C)=O)C[C@H](OC(=O)CCC)[C@@]1(O)[C@H]2OC(=O)[C@@]1(C)O` [Thapsigargin, reference compound], in the series on Ramos tumor cells, the “induction of apoptosis in Ramos cells” value is listed as “expected level of apoptosis”.

TN14003: the “bleomycin induced pulmonary fibrosis” value in series [1] is listed as “blocks development of pulmonary fibrosis”.

B1: 21H5-6H: control iBody 21H5 with 6 His tag (protein)
chain: LQVDIVPSQGEISVGESKFFLCQVAGDAKDKDISWFSPNGEKLTPNQQRISVVWNDDSSSTLTIYNANIDDAGIYKCVVTGSDAMSNYSYPISESEATVNVKIFQ
Take B1: the “CCL5 levels in IPF lung fibroblasts” value in the series on CCL2 and CCL5 protein was “observed in one slow-IPF lung fibroblast line”.

B2: AM3-114-Im7-FH-SA21: dual specificity i-body, AM3-114 with 18-residue HSA binding peptide SA21, SEQ ID NO: 80 (protein)
chain: MALQVDIVPSQGEISVGESKFFLCQVAGSLSGIRISWFSPNGEKLTPNQQRISVVWNDDSSSTLTIYNANIDDAGIYKCVVWRTGGYRHRYLVLGEATVNVKIFQGGGGSELKNSISDYTEAEFVQLLKEIEKENVAATDDVLDVLLEHFVKITEHPDGTDLIYYPSDNRDDSPEGIVKEIKEWRAANGKPGFKQGGGGGSDYKDDDDKGSGHHHHHHHHGGGGSRLIEDICLPRWGCLWEDD
modifications: protein sequence encoding AM3-114-Im7-FH-SA21 dual specificity ibody
Regarding B2, in series [2], the AUC0-T is 25266 ng·h/mL, the “Auc0-∞” value amounted to 25544 ng·h/mL, the C0 was determined as 23284 ng/mL and the ClTOT was 1.3049 mL/min/kg. In series [2], this molecule had a Thalf of 0.95 h, a Tlast of 6.00 h, a VD of 0.107571 L/kg and a λZ of 0.7279 h⁻¹.

B3: ADCX-668: CXCR4 binding i-body, SEQ ID NO: 26 (protein)
chain: LQVDIVPSQGEISVGESKFFLCQVAGTIWYEQISWFTPNGEKLTPNQQRISVVWNDDSSSTLTIYNANIDDAGIYKCVVWTRPVTSSMHEATVNVKIFQ
modifications: protein sequence encoding ADCX-668
Consider B3, for which the β-arrestin activity entry with CXCR4 is on record as “some degree of inhibition”.

B4: AM3-920: affinity matured CXCR4 i-body, SEQ ID NO: 44 (protein)
chain: LQVDIVPSQGEISVGESKFFLCQVAGSGSGIRISWFSPNGEKLTPNQQRISVVWNDDSSSTLTIYNANIDDAGIYKCVVWRTGGYRHRYLVLGEATVNVKIFQ
modifications: protein sequence encoding AM3-920
Consider B4, for which, in series [3] (setting [4]), the Ka was 1.117e+06 M⁻¹ s⁻¹ and 1.26e+06 M⁻¹ s⁻¹; the “dissociation rate constant (kd)” value is 8020 M⁻¹ s⁻¹ and 7410 M⁻¹ s⁻¹. For the same molecule, the “dissociation rate constant (kd)” value in series [3] (off-rate, CXCR4 expressed on lipoparticles (Table 3)) is given as 0.00817. Besides, in the series with CXCR4 (only an order of magnitude is printed in the cell), the “IC50 in β-Arrestin BRET assay (Antagonist mode in the presence of 100 nM SDF-1)” value is on record as “~uM”.

B5: ADCX-306: CXCR4 binding i-body, SEQ ID NO: 29 (protein)
chain: LQVDIVPSQGEISVGESKFFLCQVAGFQEWVNWFSPNGEKLTPNQQRISVVWNDDSSSTLTIYNANIDDAGIYKCVVTMPHTLNNLDVRTEATVNVKIFQ
modifications: protein sequence encoding ADCX306
B5: the β-arrestin activity entry in the series with CXCR4 is listed as “some degree of inhibition”.

B6: AM3-523-6H: AM3-523 with 6 His tag, containing the N-terminal sequence EAEA (protein)
chain: EAEALQVDIVPSQGEISVGESKFFLCQVAGSGSHMRISWFSPNGEKLTPNQQRISVVWNDDSSSTLTIYNANIDDAGIYKCVVWRVGGYRHRALVLGEATVNVKIFQ
modifications: left off: small tags and cut ends
Turning to B6, the “induction of apoptosis in Ramos cells” value with Ramos tumor cells is reported as “strongly induce apoptosis”.
